Experiment [1] addresses ATP-binding cassette transporter A1 (ABCA1), endogenous in J774 macrophages (Homo sapiens (Human)) (UniProt O95477).
The target in experiment [2] is ATP-binding cassette transporter A1 (ABCA1), endogenous in J774 macrophages (Homo sapiens (Human), UniProt O95477). The experiment can be described thus: cell-based or functional assay.

The values below come from patent US20050202532A1, “Helical synthetic peptides that stimulate cellular cholesterol efflux” (The Regents of the University of California, published 2005).

For the molecule “full-length recombinant apoA-I (His-tagged) (from UniProt P02647) (ligand)”, in experiment [1], the concentration giving maximal cholesterol efflux amounted to 10 µg/mL.

In the case of Ac-PALEDLRQGLLPVLESFKVSFLSALEEYTKKLN-NH2 [9/10 peptide, aa 209-241 of apoA-I (33-mer)], the “potency in mediating ABCA1-dependent cholesterol efflux against the 1/9 chimera” value in experiment [2] was 2 fold (against the 1/9 chimera).
